In patent publication US11099176B2 (Duke University, priority 2015, dated 2021):

B1: tsLacBP7: lactate-binding protein from Thermus sp. (SEQ ID NO: 7, 21, 121) (protein)
chain: MQAPRFRWRIQSAWDAGTVGYTLFQRFAERVKELTDGQIEIQTFPAGAVVGTFDMFDAVKTGVLDGMHPFTLYWAGRMPVTAFLSSYPLGLDRPDQWETWYYALGGLDLARRAFEEQGLFYVGPVQHDYNLIHSKKPIKSFEDFKGVKLRVPGGMIADVFSAAGAATVLLPGGEVYPALERGVIDAADFVGPAVNYNLGFHQVTKYIIMGPPETPAIHQPVDLADITLNLSRWRAVPKNLQERFEAAVHEWSWIHYAGIQKANLETWPKYKAAGVQIIRLTTVDVRKFRRVAIPIWFKWAKQDKYAREAFASQLEYMKALGYVTDADVRGLSL
modifications: tsLacBP7 (with signal peptide replaced with M)
B2: fsLacBP13: protein from Flexistipes sinusarabici (SEQ ID NO: 13, 27, 127) (protein, listed as Flexistipes sinusarabici)
chain: MGMMKKLLYSLLIILLVASAGFTAEKKIRWKLAMTWGPTLHPLSDTAEHMAEIVKELSDGNFVINIDASNVHKAPFGIFDMVKLGQYEMGHTASYYYKGKNIAFLPLTTMPFGMTAPEQYAWFYYGGGLELMQEAYTKHGMLAFPGGNTGNQMGGWFTKEINSLDDLKGLKMRIPGFAGQIMSKLGVTVTNIPPGELYTALERGTVDAVEWTGPGMDINMGFHKIAKYYYTGWHEPGSEVEFLINEKEYNKLPEKYKKILKIAMKTAAYDMYIQSYEMNAEAWQQMKEKYPDIKVKVFPEEVLKEMKTAYDNLVASYEKESPMFKKIMESKRAYLDKVRDWTHISDYLYLKSTSESNLN
B3: pgLacBP10: protein from Polymorphum gilvum (SEQ ID NO: 10, 24, 124) (protein)
chain: MTEISRRGLLAGSVFGGVALAAPTVARAQEAVEWRMQALWDAGTTPFEFEKKFVERVGELTEGRFKITLYSAGQIVPANQAFDAVRSGAFEMMKTFDGYEAGKIPAFAFTSTIPFGFPQSDQYEAWFYELGGLDLAREAYAKGGLFYIAPTVYGEEPMHSTVKIESIADMAGKKGRFVGLASAVMADLGVAVSPLATAEVYTALEKGLIDFADRGDLTANYEAGLGEVAKFIILPGVHQPTTATSYVANQAAYQKLPDGFKAALAVAAREISGSLRQHILVQDMEVLTKYKDQGVEVVRLDAADIAAARAKAVESWEKATKGDELATRVLKGQVDFMTSLGLL
B4: psLacBP11: protein from Pseudomonas stuztzeri (SEQ ID NO: 11, 25, 125) (protein)
chain: MKRRHLFGAAALLATLALAGCKDEQSQAPNQQAAGEPAKTYHWKMVTAWPKNYPGLGTSAERLAERVNAMSGGRLTIKVYAAGELVPALEVFDAVSRGTAELGHGASYYWKGKVPTAQFFTSVPFGLSTSEMNAWLSKGGGQAFWDEAYAPFGVKPLVIGNTGMQMGGWYNKEINSLTDLKGLKIRMPGLGGEVLSRLGATTVNLPGGEVFTALQTGAIDATDWVSPYNDLAFGLHKAARYYYYPGWQEPQAVLELLINQKAFDSLPADLQAIVTEASLAASRDMHDDYVYNNALALEQLKQQGTELKRFPDEVLAAMREQSDLILGELAAQSELNGRIWASMKAFQAQVEPMHEISEKELYNWR
B5: adLacBP9: protein from Anaeromyxobacter dehalogenans (SEQ ID NO: 9, 23, 123) (protein)
chain: MKKTTSRSQPDTAPKASRRSFLKKAALGAAGVAAGAAAPTIHVAQAPITLRFQSTWPQKDIFHEFALDYAKKVNEMSGGRLKIEVLAAGSVVKAFDLLDAVSKGTLDGGHGVVAYWYGKNTALALWGSGPAFGMDPNMVLAWHHYGGGRQLLEEIYRSLNLDVVSLMYGPMPTQPLGWFKQKPIAKPDDMKGLKFRTVGLSIDIFNGLGAAVNALPGAEIVPAMDRGLLDAAEFNNASSDRVLGFPDVSKICMLQSFHQCSEQFEILFNGKRFQALPADLKSIISIAAQAASADMSWKAIDRYSSDYFEMRDKQGVKFYSTRPEILKRQLEIWDQVMEKRAAENPTFKKVLESQRRFAQRAARWQNDTNVDFKMAYNHFFGGKKKAT
B6: ttLacBP1: lactate-binding protein from Thermus thermophilus, seed sequence (SEQ ID NO: 1, 15, 115) (protein, listed as Thermus thermophilus)
chain: MKRVSRRAFLRRLGVGVAATAAFSPLAVAQARRYRWRIQTAWDAGTVGYSLFQKFTERVKELTDGQLEVQPFPAGAVVGTFDMFDAVKTGVLDGMNPFTLYWAGRMPVTAFLSSYALGLDRPDQWETWFYSLGGLDIARRAFAEQGLFYVGPVQHDLNIIHSKKPIRRFEDFKGVKLRVPGGMIAEVFAAAGASTVLLPGGEVYPALERGVIDAADFVGPAVNYNLGFHQVAKYIIMGPPETPAIHQPVDLMDFTINLNRWRSLPKPLQERFIAAVHEYSWIHYAGIQKANLEAWPKYRQAGVEVIRLSNEDVRKFRRLAIPIWFKWAKMDKYSREAFASQLEYMKGIGYVTDEELKGLSL
B7: msLacBP6: lactate-binding protein from Marinobacter sp. (SEQ ID NO: 6, 20, 120) (protein)
chain: MTDITCKIETKGSARRRGFLKTLAVSAAISATLLASSVQAATTWKIQSVWDAGTVGYDLFKEWCDGMEEKTGGELKFTCFPAKAVAADNNGLFDAVRNGVLQGMNPFTLYWSGKIPASVFLSSYPAGPDQPHQWDTMFYSLGMLEKTREIYKKFGLFYVGPIQHDANIIHSKQPINSLDDLKGLKMRLPGGMVAEVFAKFGVAAVSLPGSDIFPALEKGTIDAADYVGPAVNWELGFSQVTKYILMGPPGIMSVYQPVDLMDLTVNLRAWNALDPKLQQIVEDEVRIYSQKHYLAIQKRNIEAMKKFEAAGTTVTRLSQEDLQEFRRAAIPIWYSWANKDEDAREIFDMQLEYMMNDTVGYITEDDIKGMN
B8: rsLacBP12: protein from Rhodobacter sphaeroides (SEQ ID NO: 12, 26, 126) (protein)
chain: MTAFEKKAAYSRRSFLRTGALAGGAAAGSVLAAPAVLAQAPLVMKMQTSWPASDIWMDFAREYVTRVEEMSGGRIKVDLLPAGAVVGAFQVMDAVHDGVIDASHSVSAYWYGKSKAASFFGTGPVFGGSATTMLGWFYQGGGQDLYRELTQDILGMNIVGFYGFPMPAQPFGWFKTEVNGVADIQGFKYRTVGLAADLLQAMGMSVAQLPGGEIVPAMERGVIDAFEFNNPSSDMRFGAQDVAKNYYLSSYHQASESFEYTFNRDFYEDLDPDLQAILKYAVEAASTSNTALALRQYSADLATLAAENGVAVHRTPKDILSGQLEAWDKLIVDLEADEFFKKVLDSQRAWVEQVSYYELMNAADLGLAYEHHFPGKLKL
modifications: Rhodobacter sphaeroides
B9: Y187C (conjugate)
chain: MATTWKIQSVWDAGTVGYDLFKEWCDGMEEKTGGELKFTCFPAKAVAADNNGLFDAVRNGVLQGMNPFTLYWSGKIPASVFLSSYPAGPDQPHQWDTMFYSLGMLEKTREIYKKFGLFYVGPIQHDANIIHSKQPINSLDDLKGLKMRLPGGMVAEVFAKFGVAAVSLPGSDIFPALEKGTIDAADCVGPAVNWELGFSQVTKYILMGPPGIMSVYQPVDLMDLTVNLRAWNALDPKLQQIVEDEVRIYSQKHYLAIQKRNIEAMKKFEAAGTTVTRLSQEDLQEFRRAAIPIWYSWANKDEDAREIFDMQLEYMMNDTVGYITEDDIKGMN
modifications: conjugated fluorophore; msLacBP6 (with signal peptide replaced with M)

What was measured:
[1] = Lactate-mediated fluorescence emission response of fluorescent conjugates (cysteine and fluorophore scan); format: biochemical; set-up: key to Response Acrylodan Shape / Response Badan Shape / Response Badan Intensity: m, monochromatic; d, dichromatic (i.e. spectral shape changes); 0, no change
Source text: Semi-synthetic FRSs can be engineered by site-specifically attaching thiol-reactive, environmentally sensitive fluorophores that respond to ligand-mediated conformational changes. Identification of FRS candidates that can be used for sensing applications comprises three steps: • 1. Cysteine scan. Mutant lactate-binding proteins containing single cysteines are constructed for site-specific attachment of thiol-reactive fluorophores. […] Candidate positions fall into three classes: endosteric, replacing a residue that contacts the ligand directly; peristeric, located at the rim of the binding site; allosteric (Marvin et al., 1997, Proc Natl Acad Sci USA, 94, 4366-71; Marvin, 1998, J Am Chem Soc, 120, 7-11), located outside the binding site at sites that undergo local structural changes in concert with the hinge-bending motion. • 2. Fluorophore screening. Thiol-reactive, environmentally sensitive fluorophores are attached to each cysteine mutant prepared in step 1. • 3. Evaluation of the lactate-mediated change of all the fluorescent conjugates prepared in step 2. Responses to ligand binding in which there is both a change in fluorescence emission intensity and spectral shape are essential for chemometric applications, because such changes enable ratiometric measurements. Changes in spectral shape typically are accompanied by a shift in the wavelength of the emission intensity maxima. Three classes of fluorescent responses are possible: • i. No response. • ii. Monochromatic response (emission intensity increases or decreases without a change in spectral shape) • iii. […] Hypsochromatic: emission intensity shifts to shorter wavelengths upon binding ligand (“blue shift”). • ii. Bathochromatic: emission intensity shifts to longer wavelengths upon binding ligand (“red shift”). • 4.
We constructed seventeen single cysteine mutants in msLacBP6, exploring one endosteric, fourteen peristeric, and two allosteric positions. Two dominant electronic transitions give rise to fluorescence emission in these fluorophores with maxima in the blue (<500 nm) and green (>500 nm) regions, respectively.

[2] = Thermal stability by SYPRO Orange thermal melt in a Roche LightCycler; format: physicochemical; conditions: for Thermostability apoTm: ligand-free protein, SYPRO Orange, Roche LightCycler
Experimental: The lactate-binding properties of these proteins were determined experimentally (Table 3). These experiments comprise four successive steps: • 1. Synthetic gene construction. The amino acid sequence of the homology leads are back translated into DNA sequences. […] The predicted gene sequences are assembled de novo from synthetic oligonucleotides. • 2. Heterologous protein expression of the homologues in E. coli.

[3] = Acrylodan conjugate of msLacBP6 cysteine mutant, response to lactate
[4] = Badan conjugate of msLacBP6 cysteine mutant, response to lactate

| Molecule | Thermostability apoTm [2] | other results |
| --- | --- | --- |
| B1 | >100 °C | fluorescence response to lactate ([1]; in words): strong dichromatic responses |
| B2 | 46 °C |  |
| B3 | 49 °C |  |
| B4 | 60 °C |  |
| B5 | 48 °C |  |
| B6 | >100 °C |  |
| B7 | 70 °C | mid-point denaturation temperature [2]: 70 °C |
| B8 | 48 °C |  |
| B9 |  | Response Acrylodan Intensity [1, 3]: +; Response Acrylodan Shape [1, 3]: d^f; Response Badan Intensity [1, 4]: 0; Response Badan Shape [1, 4]: d^f |
